The Immune Epitope Database (IEDB)
pIC50, pKd: −log10 of the molar value.

Columns and labels:
HLA-B*27:05 = assay: IEDB peptide-MHC binding, cellular MHC/competitive/radioactivity; ≥ and ≤ were set here for values at or beyond the usual limits of such assays; conditions: source organism: Hepacivirus hominis
HLA-C*03:03 = assay: IEDB peptide-MHC binding, purified MHC/direct/fluorescence; filed as Kd, often an IC50 or EC50 that approximates it; ≥ and ≤ were set here for values at or beyond the usual limits of such assays; conditions: source organism: Yersinia pestis Nepal516
HLA-C*07:02 = assay: as above
HLA-C*12:03 = assay: as above; conditions: source organism: Yersinia pestis Nepal516
HLA-C*15:02 = assay: as above; conditions: source organism: Yersinia pestis Nepal516
HLA-B*15:42 = assay: IEDB peptide-MHC binding, purified MHC/competitive/fluorescence; filed as Kd, often an IC50 or EC50 that approximates it; ≥ and ≤ were set here for values at or beyond the usual limits of such assays
HLA-B*27:20 = assay: as above
HLA-B*39:01 = assay: as above; conditions: source organism: Yersinia pestis Nepal516
HLA-B*45:06 = assay: as above
HLA-B*83:01 = assay: as above
HLA-C*06:02 = assay: as above; conditions: source organism: Yersinia pestis Nepal516
HLA-B*07:02 = assay: as above; conditions: source organism: Yersinia pestis Nepal516
HLA-B*15:01 = assay: as above; conditions: source organism: Yersinia pestis Nepal516
HLA-B*15:02 = assay: as above; conditions: source organism: Yersinia pestis Nepal516
HLA-B*35:01 = assay: as above; conditions: source organism: Yersinia pestis Nepal516
HLA-B*46:01 = assay: as above; conditions: source organism: Yersinia pestis Nepal516
HLA-C*04:01 [1] = assay: IEDB peptide-MHC binding, purified MHC/direct/fluorescence; filed as Kd, often an IC50 or EC50 that approximates it; ≥ and ≤ were set here for values at or beyond the usual limits of such assays; conditions: source organism: Entamoeba dispar SAW760
HLA-A*24:02 = assay: IEDB peptide-MHC binding, purified MHC/competitive/fluorescence; filed as Kd, often an IC50 or EC50 that approximates it; ≥ and ≤ were set here for values at or beyond the usual limits of such assays
HLA-A*01:01 [2] = assay: IEDB peptide-MHC binding, purified MHC/direct/fluorescence; filed as Kd, often an IC50 or EC50 that approximates it; ≥ and ≤ were set here for values at or beyond the usual limits of such assays; conditions: source organism: Mammarenavirus lassaense
HLA-A*80:01 = assay: as above
HLA-B*08:01 = assay: IEDB peptide-MHC binding, purified MHC/competitive/fluorescence; filed as Kd, often an IC50 or EC50 that approximates it; ≥ and ≤ were set here for values at or beyond the usual limits of such assays; conditions: source organism: Yersinia pestis Nepal516
HLA-B*51:01 = assay: as above; conditions: source organism: Yersinia pestis Nepal516
HLA-B*48:01 = assay: as above; conditions: source organism: Escherichia coli B171
HLA-A*02:01 = assay: IEDB peptide-MHC binding, purified MHC/competitive/radioactivity; ≥ and ≤ were set here for values at or beyond the usual limits of such assays; conditions: source organism: Trypanosoma cruzi
HLA-A*02:02 = assay: IEDB peptide-MHC binding, purified MHC/competitive/radioactivity; filed as Kd, often an IC50 or EC50 that approximates it; ≥ and ≤ were set here for values at or beyond the usual limits of such assays; conditions: source organism: Trypanosoma cruzi
HLA-A*02:03 = assay: as above; conditions: source organism: Trypanosoma cruzi
HLA-A*02:06 = assay: as above; conditions: source organism: Trypanosoma cruzi
HLA-A*68:02 = assay: as above; conditions: source organism: Trypanosoma cruzi
HLA-A*03:19 = assay: IEDB peptide-MHC binding, purified MHC/competitive/fluorescence; filed as Kd, often an IC50 or EC50 that approximates it; ≥ and ≤ were set here for values at or beyond the usual limits of such assays; conditions: source organism: Yersinia pestis Nepal516
HLA-A*32:07 = assay: as above; conditions: source organism: Yersinia pestis Nepal516
HLA-A*32:15 = assay: as above; conditions: source organism: Yersinia pestis Nepal516
HLA-A*68:23 = assay: as above; conditions: source organism: Yersinia pestis Nepal516
HLA-C*04:01 [3] = assay: as above; conditions: source organism: Yersinia pestis Nepal516
HLA-C*14:02 = assay: as above; conditions: source organism: Yersinia pestis Nepal516
HLA-A*01:01 [4] = assay: as above; conditions: source organism: Rattus norvegicus
HLA-A*29:02 = assay: as above; conditions: source organism: Rattus norvegicus
HLA-B*73:01 = assay: as above; conditions: source organism: Salmonella enterica subsp. enterica serovar Typhimurium str. LT2
[5] = source organism: Yersinia pestis Nepal516
[6] = source organism: Human herpesvirus 4 strain B95-8
[7] = source organism: Entamoeba dispar SAW760

Question: With ARMILMTHF as the sequence, how does the pIC50 (HLA-B*27:05) read?
Answer: Its pIC50 is 8.96.

Question: How did the pKd (HLA-C*03:03) turn out when YRYCHQLAL was run?
Answer: Its pKd is 6.79.

Question: And the pKd (HLA-C*07:02; [5])?
Answer: The pKd was 7.41.

Question: What about the pKd (HLA-C*12:03) of the same sequence?
Answer: Its pKd is 6.69.

Question: And the pKd (HLA-C*15:02)?
Answer: Its pKd is ≤ 4.70.

Question: And the pKd (HLA-B*15:42; [5])?
Answer: Its pKd is ≤ 5.30.

Question: What about the pKd (HLA-B*27:20; [5]) of the same sequence?
Answer: Its pKd is 9.70.

Question: What about the pKd (HLA-B*39:01) of the same sequence?
Answer: Its pKd is 8.92.

Question: And the pKd (HLA-B*45:06; [5])?
Answer: Its pKd is ≤ 5.30.

Question: And the pKd (HLA-B*83:01; [5])?
Answer: The pKd was ≤ 5.30.

Question: What about the pKd (HLA-C*06:02) of the same sequence?
Answer: The pKd was 8.74.

Question: What does the source list for HLIQNPNPF?
Answer: pKd (HLA-C*07:02; [5]): 6.20; pKd (HLA-B*07:02): 5.19; pKd (HLA-B*15:01): 7.51; pKd (HLA-B*15:02): 7.76; pKd (HLA-B*35:01): 7.56; pKd (HLA-B*46:01): 5.09

Question: With RRAALSGHL as the sequence, how does the pKd (HLA-B*15:42; [6]) read?
Answer: The pKd was ≤ 5.30.

Question: And the pKd (HLA-B*27:20; [6])?
Answer: Its pKd is 9.70.

Question: And the pKd (HLA-B*45:06; [6])?
Answer: Its pKd is ≤ 5.30.

Question: And the pKd (HLA-B*83:01; [6])?
Answer: The pKd was ≤ 5.30.

Question: With YYSNKVFPI as the sequence, how does the pKd (HLA-C*04:01 [1]) read?
Answer: Its pKd is ≤ 4.70.

Question: What about the pKd (HLA-C*07:02; [7]) of the same sequence?
Answer: The pKd was 6.61.

Question: And the pKd (HLA-A*24:02; [7])?
Answer: The pKd was ≥ 10.00.

Question: How did the pKd (HLA-A*01:01 [2]) turn out when YENAVWDQY was run?
Answer: Its pKd is 6.27.

Question: And the pKd (HLA-A*80:01; source organism: Mammarenavirus lassaense)?
Answer: The pKd was 6.33.

Question: How did the pKd (HLA-B*07:02) turn out when LPFLKSLAI was run?
Answer: Its pKd is 7.90.

Question: And the pKd (HLA-B*08:01)?
Answer: Its pKd is 6.98.

Question: What about the pKd (HLA-B*15:01) of the same sequence?
Answer: Its pKd is ≤ 4.70.

Question: What about the pKd (HLA-B*35:01) of the same sequence?
Answer: Its pKd is 7.34.

Question: What about the pKd (HLA-B*51:01) of the same sequence?
Answer: The pKd was 6.08.

Question: With RQNLSSSEL as the sequence, how does the pKd (HLA-B*48:01) read?
Answer: The pKd was 6.72.

Question: What does the source list for FLSHNFTLV?
Answer: pIC50 (HLA-A*02:01): 9.21; pKd (HLA-A*02:02): 10.33; pKd (HLA-A*02:03): 10.63; pKd (HLA-A*02:06): 9.35; pKd (HLA-A*68:02): 7.57

Question: How did the pKd (HLA-C*15:02) turn out when FYFNWNTPI was run?
Answer: The pKd was 5.97.

Question: What about the pKd (HLA-A*03:19) of the same sequence?
Answer: Its pKd is 5.85.

Question: What about the pKd (HLA-A*24:02; [5]) of the same sequence?
Answer: Its pKd is ≥ 10.00.

Question: And the pKd (HLA-A*32:07)?
Answer: Its pKd is 9.70.

Question: What about the pKd (HLA-A*32:15) of the same sequence?
Answer: Its pKd is 8.14.

Question: What about the pKd (HLA-A*68:23) of the same sequence?
Answer: Its pKd is 7.63.

Question: And the pKd (HLA-B*15:42; [5])?
Answer: The pKd was ≤ 5.30.

Question: And the pKd (HLA-B*45:06; [5])?
Answer: The pKd was ≤ 5.30.

Question: And the pKd (HLA-C*04:01 [3])?
Answer: Its pKd is 6.52.

Question: What about the pKd (HLA-C*06:02) of the same sequence?
Answer: The pKd was 7.47.

Question: And the pKd (HLA-C*14:02)?
Answer: Its pKd is ≥ 10.00.

Question: What does the source list for FFGETSHNY?
Answer: pKd (HLA-A*80:01; source organism: Mus musculus): ≤ 4.70; pKd (HLA-A*01:01 [4]): ≤ 4.70; pKd (HLA-A*29:02): ≥ 10.00

Question: WRLYSPPPV was tested. Which pKd (HLA-B*73:01) did it give?
Answer: The pKd was 6.93.
